Earlier results, collected in publication PMC4488278.

Target: EGFR (Homo sapiens) (UniProt P00533)

## EGF (from UniProt P01133)
  Kd: 1 nM
